From paper doi:10.1101/2025.09.11.675682 (2025) come the findings set out here.

To fix the notation:
B3: PLC-γ1 (Phospholipase C-γ1), 1–1219 (enzyme)
chain: MAGAASPCANGCGPGAPSDAEVLHLCRSLEVGTVMTLFYSKKSQRPERKTFQVKLETRQITWSRGADKIEGAIDIREIKEIRPGKTSRDFDRYQEDPAFRPDQSHCFVILYGMEFRLKTLSLQATSEDEVNMWIKGLTWLMEDTLQAPTPLQIERWLRKQFYSVDRNREDRISAKDLKNMLSQVNYRVPNMRFLRERLTDLEQRSGDITYGQFAQLYRSLMYSAQKTMDLPFLEASTLRAGERPELCRVSLPEFQQFLLDYQGELWAVDRLQVQEFMLSFLRDPLREIEEPYFFLDEFVTFLFSKENSVWNSQLDAVCPDTMNNPLSHYWISSSHNTYLTGDQFSSESSLEAYARCLRMGCRCIELDCWDGPDGMPVIYHGHTLTTKIKFSDVLHTIKEHAFVASEYPVILSIEDHCSIAQQRNMAQYFKKVLGDTLLTKPVEISADGLPSPNQLKRKILIKHKKLAEGSAYEEVPTSMMYSENDISNSIKNGILYLEDPVNHEWYPHYFVLTSSKIYYSEETSSDQGNEDEEEPKEVSSSTELHSNEKWFHGKLGAGRDGRHIAERLLTEYCIETGAPDGSFLVRESETFVGDYTLSFWRNGKVQHCRIHSRQDAGTPKFFLTDNLVFDSLYDLITHYQQVPLRCNEFEMRLSEPVPQTNAHESKEWYHASLTRAQAEHMLMRVPRDGAFLVRKRNEPNSYAISFRAEGKIKHCRVQQEGQTVMLGNSEFDSLVDLISYYEKHPLYRKMKLRYPINEEALEKIGTAEPDYGALYEGRNPGFYVEANPMPTFKCAVKALFDYKAQREDELTFIKSAIIQNVEKQEGGWWRGDYGGKKQLWFPSNYVEEMVNPVALEPEREHLDENSPLGDLLRGVLDVPACQIAIRPEGKNNRLFVFSISMASVAHWSLDVAADSQEELQDWVKKIREVAQTADARLTEGKIMERRKKIALELSELVVYCRPVPFDEEKIGTERACYRDMSSFPETKAEKYVNKAKGKKFLQYNRLQLSRIYPKGQRLDSSNYDPLPMWICGSQLVALNFQTPDKPMQMNQALFMTGRHCGYVLQPSTMRDEAFDPFDKSSLRGLEPCAISIEVLGARHLPKNGRGIVCPFVEIEVAGAEYDSTKQKTEFVVDNGLNPVWPAKPFHFQISNPEFAFLRFVVYEEDMFSDQNFLAQATFPVKGLKTGYRAVPLKNNYSEDLELASLLIKIDIFPAKENGD

Assay in all cases: ITC
For assay [1], the target named is B3.
A further assay deals with T1, SLP-76 159-533 (Homo sapiens, UniProt Q13094).
T1 chain: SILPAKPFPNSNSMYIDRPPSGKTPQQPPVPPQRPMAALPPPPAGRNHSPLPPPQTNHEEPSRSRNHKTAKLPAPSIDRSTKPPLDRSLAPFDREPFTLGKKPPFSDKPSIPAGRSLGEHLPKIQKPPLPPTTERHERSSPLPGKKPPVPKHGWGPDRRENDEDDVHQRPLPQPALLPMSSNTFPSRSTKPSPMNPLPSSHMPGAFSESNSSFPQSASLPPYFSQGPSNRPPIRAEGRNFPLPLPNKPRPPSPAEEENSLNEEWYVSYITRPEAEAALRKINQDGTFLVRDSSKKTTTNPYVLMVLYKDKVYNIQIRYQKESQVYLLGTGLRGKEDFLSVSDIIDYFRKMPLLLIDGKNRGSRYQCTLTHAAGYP

A further assay addresses T2, LAT 125-178 (Homo sapiens, UniProt O43561).
T2 chain: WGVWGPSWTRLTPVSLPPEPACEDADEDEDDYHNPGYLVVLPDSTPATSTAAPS

The target of assay [2] is SLP-76 PRR peptide (aa 185–200), high affinity mutant (UniProt Q13094 185-200).

What is called Kd is the concentration at which binding is half-saturated. High values mean weaker binding, low ones tighter binding. In assay [1], QPPVPPQRPMAALPPP [SLP-76 PRR peptide (aa 185–200), wild type] showed a dissociation constant Kd of 2360 nM.

B1: Gads 1-322 (protein)
chain: MEAVAKFDFTASGEDELSFHTGDVLKILSNQEEWFKAELGSQEGYVPKNFIDIQFPKWFHEGLSRHQAENLLMGKEVGFFIIRASQSSPGDFSISVRHEDDVQHFKVMRDNKGNYFLWTEKFPSLNKLVDYYRTNSISRQKQIFLRDRTREDQGHRGNSLDRRSQGGPHLSGAVGEEIRPSMNRKLSDHPPTLPLQQHQHQPQPPQYAPAPQQLQQPPQQRYLQHHHFHQERRGGSLDINDGHCGTGLGSEMNAALMHRRHTDPVQLQAAGRVRWARALYDFEALEDDELGFHSGEVVEVLDSSNPSWWTGRLHNKLGLFPA
B1: binding in the assay with SLP-76 159-533 was put at a Kd of 3.6 nM.

B2: Gads 1-322 (protein)
chain: MEAVAKFDFTASGEDELSFHTGDVLKILSNQEEWFKAELGSQEGYVPKNFIDIQFPKWFHEGLSRHQAENLLMGKEVGFFIIRASQSSPGDFSISVRHEDDVQHFKVMRDNKGNYFLWTEKFPSLNKLVDYYRTNSISRQKQIFLRDRTREDQGHRGNSLDRRSQGGPHLSGAVGEEIRPSMNRKLSDHPPTLPLQQHQHQPQPPQYAPAPQQLQQPPQQRYLQHHHFHQERRGGSLDINDGHCGTGLGSEMNAALMHRRHTDPVQLQAAGRVRWARALYDFEALEDDELGFHSGEVVEVLDSSNPSWWTGRLHNKLGLFPA
modifications: pY132, pY171
As for B2, the dissociation constant Kd with LAT 125-178 is 213 nM.

The molecule B3 yielded a Kd in assay [2] of 1000 nM.

B4: PLC-γ1 1-1219 (protein)
chain: MAGAASPCANGCGPGAPSDAEVLHLCRSLEVGTVMTLFYSKKSQRPERKTFQVKLETRQITWSRGADKIEGAIDIREIKEIRPGKTSRDFDRYQEDPAFRPDQSHCFVILYGMEFRLKTLSLQATSEDEVNMWIKGLTWLMEDTLQAPTPLQIERWLRKQFYSVDRNREDRISAKDLKNMLSQVNYRVPNMRFLRERLTDLEQRSGDITYGQFAQLYRSLMYSAQKTMDLPFLEASTLRAGERPELCRVSLPEFQQFLLDYQGELWAVDRLQVQEFMLSFLRDPLREIEEPYFFLDEFVTFLFSKENSVWNSQLDAVCPDTMNNPLSHYWISSSHNTYLTGDQFSSESSLEAYARCLRMGCRCIELDCWDGPDGMPVIYHGHTLTTKIKFSDVLHTIKEHAFVASEYPVILSIEDHCSIAQQRNMAQYFKKVLGDTLLTKPVEISADGLPSPNQLKRKILIKHKKLAEGSAYEEVPTSMMYSENDISNSIKNGILYLEDPVNHEWYPHYFVLTSSKIYYSEETSSDQGNEDEEEPKEVSSSTELHSNEKWFHGKLGAGRDGRHIAERLLTEYCIETGAPDGSFLVRESETFVGDYTLSFWRNGKVQHCRIHSRQDAGTPKFFLTDNLVFDSLYDLITHYQQVPLRCNEFEMRLSEPVPQTNAHESKEWYHASLTRAQAEHMLMRVPRDGAFLVRKRNEPNSYAISFRAEGKIKHCRVQQEGQTVMLGNSEFDSLVDLISYYEKHPLYRKMKLRYPINEEALEKIGTAEPDYGALYEGRNPGFYVEANPMPTFKCAVKALFDYKAQREDELTFIKSAIIQNVEKQEGGWWRGDYGGKKQLWFPSNYVEEMVNPVALEPEREHLDENSPLGDLLRGVLDVPACQIAIRPEGKNNRLFVFSISMASVAHWSLDVAADSQEELQDWVKKIREVAQTADARLTEGKIMERRKKIALELSELVVYCRPVPFDEEKIGTERACYRDMSSFPETKAEKYVNKAKGKKFLQYNRLQLSRIYPKGQRLDSSNYDPLPMWICGSQLVALNFQTPDKPMQMNQALFMTGRHCGYVLQPSTMRDEAFDPFDKSSLRGLEPCAISIEVLGARHLPKNGRGIVCPFVEIEVAGAEYDSTKQKTEFVVDNGLNPVWPAKPFHFQISNPEFAFLRFVVYEEDMFSDQNFLAQATFPVKGLKTGYRAVPLKNNYSEDLELASLLIKIDIFPAKENGD
modifications: pY132, pY171
In the assay with LAT 125-178, B4 came in with a Kd of 84 nM.
